Results: publication PMC7352312
Blank lines part the entries; values can stand above or below the substance they belong to.

Legend:
[1] = biological target: N-terminal domain of major ampullate silk protein (MaSpN) from Nephila antipodiana, construct T1-E137 (Nephila antipodiana); test: SEC; Superdex 200 Increase 10/300 GL, 20 mM sodium phosphate pH 7.0, 50 mM NaCl, ~600 µM protein injected; self-association
[2] = biological target: N-terminal domain of major ampullate silk protein (MaSpN) from Nephila antipodiana, construct T1-E137 (Nephila antipodiana); test: AUC; sedimentation velocity, 1.5 mg/mL protein, 20 mM phosphate, 0 mM NaCl, pH 7.0-8.0 (mutants and MaSpN at pH 7.0), 24 °C; self-association
[3] = biological target: N-terminal domain of aciniform silk protein (AcSpN) from Nephila antipodiana, construct S15-E153 (renumbered S4-E142) (Nephila antipodiana); test: AUC; sedimentation velocity, 1.5 mg/mL protein, 20 mM phosphate, 300 mM NaCl, pH 5.85 and 5.50, 24 °C; self-association
[4] = biological target: N-terminal domain of aciniform silk protein (AcSpN) from Nephila antipodiana, construct S15-E153 (renumbered S4-E142) (Nephila antipodiana); test: AUC; sedimentation velocity, 1.5 mg/mL protein, 20 mM phosphate, 150 mM NaCl, pH ≥ 7.0 (mutants and MaSpN at pH 7.0), 24 °C; self-association
[5] = biological target: N-terminal domain of aciniform silk protein (AcSpN) from Nephila antipodiana, construct S15-E153 (renumbered S4-E142) (Nephila antipodiana); test: AUC; sedimentation velocity, 1.5 mg/mL protein, 20 mM phosphate, 150 mM NaCl, pH < 7.0, 24 °C; self-association
[6] = biological target: AcSpN A71R mutant (Nephila antipodiana) (Nephila antipodiana); test: AUC; sedimentation velocity, 1.5 mg/mL protein, 20 mM phosphate, 300 mM NaCl, pH 7.0-8.0 (mutants and MaSpN at pH 7.0), 24 °C; self-association
[7] = biological target: AcSpN K122E mutant (Nephila antipodiana) (Nephila antipodiana); test: AUC; sedimentation velocity, 1.5 mg/mL protein, 20 mM phosphate, 150 mM NaCl, pH ≥ 7.0 (mutants and MaSpN at pH 7.0), 24 °C; self-association
[8] = biological target: AcSpN K103E mutant (Nephila antipodiana) (Nephila antipodiana); test: AUC; sedimentation velocity, 1.5 mg/mL protein, 20 mM phosphate, 0 mM NaCl, pH 7.0-8.0 (mutants and MaSpN at pH 7.0), 24 °C; self-association
[9] = biological target: AcSpN R107E mutant (Nephila antipodiana) (Nephila antipodiana); test: as above

Substance: N-terminal domain of major ampullate silk protein (MaSpN) from Nephila antipodiana, construct T1-E137 (domain or fragment)
stoichiometry N [1]: 2
stoichiometry N [2]: 2

Substance: N-terminal domain of aciniform silk protein (AcSpN) from Nephila antipodiana, construct S15-E153 (renumbered S4-E142) (domain or fragment)
stoichiometry N [3]: 2
stoichiometry N [4]: 2
stoichiometry N [5]: 2

Substance: AcSpN K122E mutant (Nephila antipodiana) (domain or fragment)
stoichiometry N [7]: 2

Substance: AcSpN R107E mutant (Nephila antipodiana) (domain or fragment)
stoichiometry N [9]: 2

The next lines start with the values.

percent in a dimeric form [6]: 10%
Substance: AcSpN A71R mutant (Nephila antipodiana) (domain or fragment)

stoichiometry N [8]: 2
Substance: AcSpN K103E mutant (Nephila antipodiana) (domain or fragment)
